Laboratory results as given in patent US20190352356A1.
Numbering of substitutions follows the chain as printed. In names and notes the source's numbering stands. Each block holds one binder with its values, some of them ahead of it. Bridges are numbered along the chain shown (N, C = ends). Where no end group is shown, it is not given here.

Legend:
[1] = target: human amylin receptor (hAMY1(a)) (human) (UniProt P30988); assay: cell-based or functional assay
[2] = target: human calcitonin receptor (hCT(a)) (human) (UniProt P30988); assay: cell-based or functional assay
human calcitonin receptor (hCT(a)) (human), sequence (P30988 25-474): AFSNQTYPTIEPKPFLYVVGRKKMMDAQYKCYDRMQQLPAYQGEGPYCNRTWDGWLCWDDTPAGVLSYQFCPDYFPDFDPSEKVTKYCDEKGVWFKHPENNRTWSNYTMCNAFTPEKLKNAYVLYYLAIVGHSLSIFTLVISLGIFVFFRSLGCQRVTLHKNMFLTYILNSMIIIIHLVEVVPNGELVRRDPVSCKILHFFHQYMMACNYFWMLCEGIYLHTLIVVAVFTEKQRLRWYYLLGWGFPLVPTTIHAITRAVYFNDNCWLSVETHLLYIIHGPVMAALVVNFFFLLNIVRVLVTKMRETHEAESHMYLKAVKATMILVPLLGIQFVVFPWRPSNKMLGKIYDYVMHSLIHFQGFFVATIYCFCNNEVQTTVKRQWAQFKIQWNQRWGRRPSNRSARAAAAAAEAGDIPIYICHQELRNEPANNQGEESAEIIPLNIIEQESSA

human amylin receptor (hAMY1(a)) (human), sequence (P30988 25-474, chain 1 of 2): as the sequence (P30988 25-474) above
human amylin receptor (hAMY1(a)) (human), sequence (O60894 27-148, chain 2 of 2, further chain): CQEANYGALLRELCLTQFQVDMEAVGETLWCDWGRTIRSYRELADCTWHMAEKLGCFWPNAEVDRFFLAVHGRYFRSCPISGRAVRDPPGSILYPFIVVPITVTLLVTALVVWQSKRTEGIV

- pEC50 of cAMP production (pEC50 (-log10(EC50))) [1]: 8.47
- pEC50 of cAMP production (pEC50 (-log10(EC50))) [2]: 8.3
B1: exemplary mutant-hIAPP polypeptide mutant analog 1 (N22K, G24P, I26P, N31K) (peptide)
peptide: KCNTATCATQRLANFLVHSSNKFPAPLSSTKVGSNTY
HELM: PEPTIDE1{K.C.N.T.A.T.C.A.T.Q.R.L.A.N.F.L.V.H.S.S.N.K.F.P.A.P.L.S.S.T.K.V.G.S.N.T.Y.[am]}$PEPTIDE1,PEPTIDE1,2:R3-7:R3$$$V2.0; N-terminus assumed
SMILES: CC(C)C[C@H](NC(=O)[C@H](CCCNC(=N)N)NC(=O)[C@H](CCC(N)=O)NC(=O)[C@@H](NC(=O)[C@H](C)NC(=O)[C@@H]1CSSC[C@H](NC(=O)[C@@H](N)CCCCN)C(=O)N[C@@H](CC(N)=O)C(=O)N[C@@H]([C@@H](C)O)C(=O)N[C@@H](C)C(=O)N[C@@H]([C@@H](C)O)C(=O)N1)[C@@H](C)O)C(=O)N[C@@H](C)C(=O)N[C@@H](CC(N)=O)C(=O)N[C@@H](Cc1ccccc1)C(=O)N[C@@H](CC(C)C)C(=O)N[C@H](C(=O)N[C@@H](Cc1c[nH]cn1)C(=O)N[C@@H](CO)C(=O)N[C@@H](CO)C(=O)N[C@@H](CC(N)=O)C(=O)N[C@@H](CCCCN)C(=O)N[C@@H](Cc1ccccc1)C(=O)N1CCC[C@H]1C(=O)N[C@@H](C)C(=O)N1CCC[C@H]1C(=O)N[C@@H](CC(C)C)C(=O)N[C@@H](CO)C(=O)N[C@@H](CO)C(=O)N[C@H](C(=O)N[C@@H](CCCCN)C(=O)N[C@H](C(=O)NCC(=O)N[C@@H](CO)C(=O)N[C@@H](CC(N)=O)C(=O)N[C@H](C(=O)N[C@@H](Cc1ccc(O)cc1)C(N)=O)[C@@H](C)O)C(C)C)[C@@H](C)O)C(C)C

- pEC50 of cAMP production (pEC50 (-log10(EC50))) [1]: 8.75
- pEC50 of cAMP production (pEC50 (-log10(EC50))) [2]: 7.97
B2: exemplary mutant-hIAPP polypeptide mutant analog 2 (N21K, G24P, I26P, N35K) (peptide)
peptide: B1 peptide with N21K, K22N, K31N, N35K
HELM: PEPTIDE1{K.C.N.T.A.T.C.A.T.Q.R.L.A.N.F.L.V.H.S.S.K.N.F.P.A.P.L.S.S.T.N.V.G.S.K.T.Y.[am]}$PEPTIDE1,PEPTIDE1,2:R3-7:R3$$$V2.0; N-terminus assumed
SMILES: CC(C)C[C@H](NC(=O)[C@H](CCCNC(=N)N)NC(=O)[C@H](CCC(N)=O)NC(=O)[C@@H](NC(=O)[C@H](C)NC(=O)[C@@H]1CSSC[C@H](NC(=O)[C@@H](N)CCCCN)C(=O)N[C@@H](CC(N)=O)C(=O)N[C@@H]([C@@H](C)O)C(=O)N[C@@H](C)C(=O)N[C@@H]([C@@H](C)O)C(=O)N1)[C@@H](C)O)C(=O)N[C@@H](C)C(=O)N[C@@H](CC(N)=O)C(=O)N[C@@H](Cc1ccccc1)C(=O)N[C@@H](CC(C)C)C(=O)N[C@H](C(=O)N[C@@H](Cc1c[nH]cn1)C(=O)N[C@@H](CO)C(=O)N[C@@H](CO)C(=O)N[C@@H](CCCCN)C(=O)N[C@@H](CC(N)=O)C(=O)N[C@@H](Cc1ccccc1)C(=O)N1CCC[C@H]1C(=O)N[C@@H](C)C(=O)N1CCC[C@H]1C(=O)N[C@@H](CC(C)C)C(=O)N[C@@H](CO)C(=O)N[C@@H](CO)C(=O)N[C@H](C(=O)N[C@@H](CC(N)=O)C(=O)N[C@H](C(=O)NCC(=O)N[C@@H](CO)C(=O)N[C@@H](CCCCN)C(=O)N[C@H](C(=O)N[C@@H](Cc1ccc(O)cc1)C(N)=O)[C@@H](C)O)C(C)C)[C@@H](C)O)C(C)C

- pEC50 of cAMP production (pEC50 (-log10(EC50))) [1]: 9.13
- pEC50 of cAMP production (pEC50 (-log10(EC50))) [2]: 8.62
B3: exemplary mutant-hIAPP polypeptide mutant analog 3 (N21K, N35K) (peptide)
peptide: KCNTATCATQRLANFLVHSSKNFGAILSSTNVGSKTY
HELM: PEPTIDE1{K.C.N.T.A.T.C.A.T.Q.R.L.A.N.F.L.V.H.S.S.K.N.F.G.A.I.L.S.S.T.N.V.G.S.K.T.Y.[am]}$PEPTIDE1,PEPTIDE1,2:R3-7:R3$$$V2.0; N-terminus assumed
SMILES: CC[C@H](C)[C@H](NC(=O)[C@H](C)NC(=O)CNC(=O)[C@H](Cc1ccccc1)NC(=O)[C@H](CC(N)=O)NC(=O)[C@H](CCCCN)NC(=O)[C@H](CO)NC(=O)[C@H](CO)NC(=O)[C@H](Cc1c[nH]cn1)NC(=O)[C@@H](NC(=O)[C@H](CC(C)C)NC(=O)[C@H](Cc1ccccc1)NC(=O)[C@H](CC(N)=O)NC(=O)[C@H](C)NC(=O)[C@H](CC(C)C)NC(=O)[C@H](CCCNC(=N)N)NC(=O)[C@H](CCC(N)=O)NC(=O)[C@@H](NC(=O)[C@H](C)NC(=O)[C@@H]1CSSC[C@H](NC(=O)[C@@H](N)CCCCN)C(=O)N[C@@H](CC(N)=O)C(=O)N[C@@H]([C@@H](C)O)C(=O)N[C@@H](C)C(=O)N[C@@H]([C@@H](C)O)C(=O)N1)[C@@H](C)O)C(C)C)C(=O)N[C@@H](CC(C)C)C(=O)N[C@@H](CO)C(=O)N[C@@H](CO)C(=O)N[C@H](C(=O)N[C@@H](CC(N)=O)C(=O)N[C@H](C(=O)NCC(=O)N[C@@H](CO)C(=O)N[C@@H](CCCCN)C(=O)N[C@H](C(=O)N[C@@H](Cc1ccc(O)cc1)C(N)=O)[C@@H](C)O)C(C)C)[C@@H](C)O

- pEC50 of cAMP production (pEC50 (-log10(EC50))) [1]: 9.43
- pEC50 of cAMP production (pEC50 (-log10(EC50))) [2]: 8.55
B4: exemplary mutant-hIAPP polypeptide mutant analog 4 (N22K, S28P, N31K as SEQ ID NO: 22 is printed) (peptide)
peptide: KCNTATCATQRLANFLVHSSNKFGAILPSTKVGSNTY-NH2
modifications: disulfide 2-7; not fully specified; printed as KCNTATCATQRLANFLVHSSNKFGAILPSTKVGSNTY-NH2
